The source of these data is publication PMC2964155 (Virology, 2010).

Several values for one entry are separate records, joined by “and”; a condition that tells them apart may be missing. Equal entries are not always repeated.

Series [1] has as its target Hepatitis B Virus (HBV) capsid protein Cp183-EEE (S155E/S162E/S170E) (Hepatitis B Virus, adyw). Briefly: negative-stain electron microscopy.
Series [2] addresses Hepatitis B Virus (HBV) capsid (core) protein Cp183, adyw wildtype (Hepatitis B Virus, adyw). Briefly: negative-stain electron microscopy.
The series “SEC-MALS” deals with the molecule itself. Briefly: SEC-MALS.

Consider “Hepatitis B Virus (HBV) capsid protein Cp183-EEE (S155E/S162E/S170E) (natural protein)”, for which, in series [1], the stoichiometry N was 240 and 180.

Consider “Hepatitis B Virus (HBV) capsid (core) protein Cp183, adyw wildtype (natural protein)”, for which the stoichiometry N in series [2] was 240 and 180.

B1: Brome Mosaic Virus (BMV) capsid protein (natural protein)
chain: MSTSGTGKMTRAQRRAAARRNRWTARVQPVIVEPLAAGQGKAIKAIAGYSISKWEASSDAITAKATNAMSITLPHELSSEKNKELKVGRVLLWLGLLPSVAGRIKACVAEKQAQAEAAFQVALAVADSSKEVVAAMYTDAFRGATLGDLLNLQIYLYASEAVPAKAVVVHLEVEHVRPTFDDFFTPVYR
On to B1, for which, in the series “SEC-MALS”, the “stoichiometry N” value was determined as 180.
